Laboratory results reported in US20200283508A1 (TEXAS A AND M UNIVERSITY SYSTEM, published 2020).
Like-named read-outs stand apart in the source and are kept apart here.

How the values were obtained:
[1] = biological target: T1, synthetic peptide Coa-RI (Coa 506-532) (Staphylococcus aureus strain Newman); experiment: isothermal titration calorimetry, peptide into 10 µM Fg-D, one-site model
T1 construct: also called sCoa-RI

Coa-R (Coa 506-636) [2] = biological target: T2, Coa-R (Coa 506-636) (Staphylococcus aureus strain Newman); experiment: ELISA, antigen coated 200 ng/well, scFv-Fc at 0.5 µg/ml
Coa-C (Coa 311-636) [3] = biological target: T3, Coa-C (Coa 311-636) (Staphylococcus aureus strain Newman, UniProt P08515 1-218 = GST)
[4] = biological target: T4, recombinant Efb-O (Efb 68-98) (Staphylococcus aureus strain Newman, UniProt P08515 1-218 = GST); experiment: apparent Kd from half-maximal binding in ELISA (GraphPad Prism)
Efb-A30-67 [5] = biological target: T5, Efb-A30-67 (Staphylococcus aureus strain Newman, UniProt P08515 1-218 = GST; A6QG59 30-67); experiment: as above
Efb-N30-105 [6] = biological target: T6, Efb-N30-105 (Staphylococcus aureus strain Newman, UniProt A6QG59 30-105); experiment: as above
T6 sequence: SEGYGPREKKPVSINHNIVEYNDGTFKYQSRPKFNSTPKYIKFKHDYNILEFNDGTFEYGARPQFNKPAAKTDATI

[7] = biological target: T4, recombinant Efb-O (Efb 68-98)
Efb-A30-67 [8] = biological target: T5, Efb-A30-67
[9] = biological target: T4, recombinant Efb-O (Efb 68-98); experiment: ELISA, apparent Kd from half maximum binding
Efb-A30-67 [10] = biological target: T5, Efb-A30-67; experiment: ELISA, apparent Kd from half maximum binding
Efb-N30-105 [11] = biological target: T6, Efb-N30-105; experiment: ELISA, apparent Kd from half maximum binding
Coa-F (Coa 311-505) = Coa-F (Coa 311-505) (Staphylococcus aureus strain Newman, UniProt P08515 1-218 = GST); experiment: apparent Kd from half-maximal binding in ELISA (GraphPad Prism)
[12] = biological target: T7, Coa-R0474-505 (recombinant protein) (Staphylococcus aureus strain Newman); experiment: as above
T7 chain: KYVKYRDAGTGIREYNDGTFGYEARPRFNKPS

Coa-C (Coa 311-636) [13] = biological target: T3, Coa-C (Coa 311-636); experiment: as above
Efb-N30-105 [14] = biological target: T6, Efb-N30-105; experiment: ELISA, antigen coated 200 ng/well, scFv-Fc at 0.5 µg/ml
[15] = biological target: T7, Coa-R0474-505 (recombinant protein); experiment: solid-phase binding assay, titration (FIG. 24); ND in FIG. 27
[16] = biological target: T1, synthetic peptide Coa-RI (Coa 506-532); experiment: peptide inhibition ELISA; appreciable inhibition only above 100 µM peptide
[17] = biological target: T4, recombinant Efb-O (Efb 68-98); experiment: solid-phase binding assay, titration (FIG. 24)
Efb-A30-67 [18] = biological target: T5, Efb-A30-67; experiment: solid-phase binding assay, titration (FIG. 24)
Efb-N30-105 [19] = biological target: T6, Efb-N30-105; experiment: solid-phase binding assay, titration (FIG. 24)
Coa-R (Coa 506-636) [20] = biological target: T2, Coa-R (Coa 506-636); experiment: blocking ELISA: scFv-Fc pre-incubated with 10 nM CoaR, residual binding to coated Fg (blocked ligand: Fg)
Coa-C (Coa 311-636) [21] = biological target: T3, Coa-C (Coa 311-636); experiment: apparent Kd from half-maximal binding in ELISA (GraphPad Prism); remark: listed apart in the source
Experimental: As well, binding was tested against Coa fragments, namely Coa-C₃₁₁₋₆₃₆, Coa-F₃₁₁₋₅₀₅, Coa-R0₄₇₄₋₅₀₅ and Coa-R₅₀₆₋₆₃₆. Recombinant proteins Efb-N₃₀₋₁₀₅, Efb-A₃₀₋₆₇, Efb-O₆₈₋₉₈, Coa-C₃₁₁₋₆₃₆, Coa-F₃₁₁₋₅₀₅, Coa-R0₄₇₄₋₅₀₅ and Coa-R₅₀₆₋₆₃₆ were diluted in 50 mM sodium carbonate pH 9.6 and immobilized at the concentration of 200 ng/well for 1 hour at room temperature. Immobilized proteins were probed for recognition in a solid-phase binding assay with different quantities of LIG40 antibodies after blocking and washing. After washing, varying concentrations of LIG40 scFv-Fc antibodies were diluted in 2% BSA+1×PBS+0.05% Tween-20 and incubated with the immobilized proteins for 1 hour at room temperature with shaking at 250 rpm. Bound scFv-Fcs were detected using polyclonal α-human IgG HRP-conjugated Ab diluted to 1:10000 in 2% BSA+1×PBS+0.05% Tween-20. HRP-conjugated Ab was incubated for 1 hour at room temperature with shaking at 250 rpm. HRP signal was developed with Sigma FAST-OPD using manufacturers guidelines.

BSA = biological target: T8, BSA (bovine, UniProt P02769 25-607); experiment: solid-phase binding assay (FIG. 24)
T8 construct: also called bovine serum albumin

Coa-R (Coa 506-636) [22] = biological target: T2, Coa-R (Coa 506-636)
Coa-C (Coa 311-636) [23] = biological target: T3, Coa-C (Coa 311-636); remark: listed apart in the source

T8 sequence (P02769 25-607 limits assumed): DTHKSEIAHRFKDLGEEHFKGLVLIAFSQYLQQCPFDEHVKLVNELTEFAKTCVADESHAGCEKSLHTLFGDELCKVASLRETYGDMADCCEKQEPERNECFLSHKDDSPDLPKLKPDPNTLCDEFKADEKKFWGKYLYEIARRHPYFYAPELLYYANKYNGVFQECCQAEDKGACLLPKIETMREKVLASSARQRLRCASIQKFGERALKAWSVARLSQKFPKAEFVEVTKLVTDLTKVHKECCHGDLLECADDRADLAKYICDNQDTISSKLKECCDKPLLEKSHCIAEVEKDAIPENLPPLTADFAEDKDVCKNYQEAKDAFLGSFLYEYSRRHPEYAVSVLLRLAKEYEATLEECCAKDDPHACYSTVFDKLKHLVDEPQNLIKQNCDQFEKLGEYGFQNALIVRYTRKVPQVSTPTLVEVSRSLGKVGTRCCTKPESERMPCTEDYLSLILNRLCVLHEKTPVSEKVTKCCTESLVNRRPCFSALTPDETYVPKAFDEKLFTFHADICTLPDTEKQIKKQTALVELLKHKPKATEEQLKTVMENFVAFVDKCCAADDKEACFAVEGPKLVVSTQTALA

B1: Fibrinogen-D fragment (other)
chain 1: VSEDLRSRIEVLKRKVIEKVQHIQLLQKNVRAQLVDMKRLEVDIDIKIRSCRGSCSRALAREVDLKDYEDQQKQLEQVIAKDLLPSR
chain 2: DNENVVNEYSSELEKHQLYIDETVNSNIPTNLRVLRSILENLRSKIQKLESDVSAQMEYCRTPCTVSCNIPVVSGKECEEIIRKGGETSEMYLIQPDSSVKPYRVYCDMNTENGGWTVIQNRQDGSVDFGRKWDPYKQGFGNVATNTDGKNYCGLPGEYWLGNDKISQLTRMGPTELLIEMEDWKGDKVKAHYGGFTVQNEANKYQISVNKYRGTAGNALMDGASQLMGENRTMTIHNGMFFSTYDRDNDGWLTSDPRKQCSKEDGGGWWYNRCHAANPNGRYYWGGQYTWDMAKHGTDDGVVWMNWKGSWYSMRKMSMKIRPFFPQQ
chain 3: KMLEEIMKYEASILTHDSSIRYLQEIYNSNNQKIVNLKEKVAQLEAQCQEPCKDTVQIHDITGKDCQDIANKGAKQSGLYFIKPLKANQQFLVYCEIDGSGNGWTVFQKRLDGSVDFKKNWIQYKEGFGHLSPTGTTEFWLGNEKIHLISTQSAIPYALRVELEDWNGRTSTADYAMFKVGPEADKYRLTYAYFAGGDAGDAFDGFDFGDDPSDKFFTSHNGMQFSTWDNDNDKFEGNCAEQDGSGWWMNKCHAGHLNGVYYQGGTYSKASTPNGYDNGIIWATWKTRWYSMKKTTMKIIPFNRLTIGEGQQHHLGGAK
notes: domain: D fragment; also called Fg-D; D fragment of human Fg
Kd [1]: 88 nM

B2: FBE5-F11 (scFv, V domains shown)
VH: QVQLQESGGGVVQPGRSLRLSCAASGFTFSSYGMHWVRQAPGKGLEWVAVISYDGSNKYYADSVKGRFTISRDNSKNTLYLQMNSLRAEDTAVYYCAKDLASSGFDYWGQGTLVTVSS
VL: QSVLTQPPSVSAAPGQKVTISCSGSSSNIGNNYVSWYQQLPGTAPKLLIYDNNKRPSGIPDRFSGSKSGTSATLGITGLQTGDEADYYCGTWDSSLSAEVFGGGTKLTVL
binding result (Coa-R (Coa 506-636) [2]): no binding (tested: 0.5 µg/ml) | EC50 (read off the curve) (Coa-C (Coa 311-636) [3]): ~0.06 µg/mL | Kd [4]: 0.396 nM | Kd (Efb-A30-67 [5]): 0.483 nM | Kd (Efb-N30-105 [6]): 0.219 nM | EC50 (read off the curve) [7]: ~0.05 µg/mL | EC50 (read off the curve) (Efb-A30-67 [8]): ~0.06 µg/mL | Kd [9]: ~0.1 nM | Kd (Efb-A30-67 [10]): ~0.1 nM | Kd (Efb-N30-105 [11]): ~0.1 nM | Kd (Coa-F (Coa 311-505)): 0.244 nM | Kd [12]: 0.213 nM | Kd (Coa-C (Coa 311-636) [13]): 0.513 nM

B3: FBE5-E5 (scFv, V domains shown)
VH: QMQLVQSGGGVVQPGRSLRLSCAASGFTFSSYGMHWVRQAPGKGLEWVAVISYDGSNKYYADSVKGRFTISRDNSKNTLYLQMNSLRGEDTAVYYCAREGGWEPNGLDYWGQGTLVTVSS
VL: B2 VL
binding result (Coa-R (Coa 506-636) [2]): no binding (tested: 0.5 µg/ml) | binding result (Efb-N30-105 [14]): binds | Kd [4]: 434 nM | Kd (Coa-F (Coa 311-505)): 9.5 nM | Kd [12]: 864 nM | Kd (Coa-C (Coa 311-636) [13]): 6.27 nM

B4: LIG40-A11 (scFv, V domains shown)
VH: QVQLVESGGVVVQPGGSLRLSCAASGFTFDDYAMHWVRQAPGKGLEWVSLISWDGGSTYYADSVKGRFTISRDNSKNSLYLQMNSLRAEDTALYYCVAARRGMDVWGQGTTVTVSS
VL: KIVLTQSPLSLPVTPGEPASISCRSSQSLLYSNGNNYLDWYLQKPGQSPQLLIYLGSNRAPGVPDRFSGSGSGTDFTLRISRVEAEDVGVYYCMQGRQPPFTFGPGTKVDIK
notes: also called anti-CoaR scFv-Fc antibody
binding result [15]: no binding | binding result [16]: binds | binding result [17]: no binding | binding result (Efb-A30-67 [18]): no binding | binding result (Efb-N30-105 [19]): no binding | IC50 (read off the curve) (Coa-R (Coa 506-636) [20]): ~3 µg/mL | Kd (Coa-C (Coa 311-636) [21]): 0.133 nM | binding result (BSA): no binding | EC50 (read off the curve) (Coa-R (Coa 506-636) [22]): ~0.008 µg/mL | EC50 (read off the curve) (Coa-C (Coa 311-636) [23]): ~0.02 µg/mL
